# From IntAct's records for PubMed 18606998
# B1: Transient receptor potential cation channel subfamily V member 5 (Oryctolagus cuniculus (Rabbit)), Q9XSM3 (parent)
# chain: MGACPPKAKGPWAQLQKLLISWPVGEQDWEQYRDRVNMLQQERIRDSPLLQAAKENDLRLLKILLLNQSCDFQQRGAVGETALHVAALYDNLEAATLLMEAAPELAKEPALCEPFVGQTALHIAVMNQNLNLVRALLARGASVSARATGAAFRRSPHNLIYYGEHPLSFAACVGSEEIVRLLIEHGADIRAQDSLGNTVLHILILQPNKTFACQMYNLLLSYDEHSDHLQSLELVPNHQGLTPFKLAGVEGNTVMFQHLMQKRKHVQWTCGPLTSTLYDLTEIDSWGEELSFLELVVSSKKREARQILEQTPVKELVSFKWKKYGRPYFCVLASLYILYMICFTTCCIYRPLKLRDDNRTDPRDITILQQKLLQEAYVTHQDNIRLVGELVTVTGAVIILLLEIPDIFRVGASRYFGQTILGGPFHVIIITYASLVLLTMVMRLTNMNGEVVPLSFALVLGWCSVMYFARGFQMLGPFTIMIQKMIFGDLMRFCWLMAVVILGFASAFHITFQTEDPNNLGEFSDYPTALFSTFELFLTIIDGPANYSVDLPFMYCITYAAFAIIATLLMLNLFIAMMGDTHWRVAQERDELWRAQVVATTVMLERKMPRFLWPRSGICGYEYGLGDRWFLRVENHHDQNPLRVLRYVEAFKCSDKEDGQEQLSEKRPSTVESGMLSRASVAFQTPSLSRTTSQSSNSHRGWEILRRNTLGHLNLGLDLGEGDGEEVYHF
# Variants of: B1
# Settings: with leg1_human LGALS1, P09382
# Sequence of leg1_human LGALS1, P09382 (P09382 whole entry): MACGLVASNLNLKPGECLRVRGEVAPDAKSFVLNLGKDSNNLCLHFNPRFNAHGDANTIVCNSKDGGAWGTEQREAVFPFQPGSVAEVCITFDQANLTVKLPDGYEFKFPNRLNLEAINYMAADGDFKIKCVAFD
row,effect of a mutation on the interaction,Variant
1,disrupting interaction,N358Q
